Data as given in patent US20200264162A1.

Target: tau-RFP (full-length 2N4R wild-type tau fused to the N-terminus of TagRFP) (UniProt P10636)
Test: fluorescence lifetime FRET in live HEK293 cells, titration of tau-RFP acceptor to tau-GFP donor

A maximum energy transfer efficiency (E) of 0.086 was found for “tau-GFP (full-length 2N4R wild-type tau fused to the N-terminus of EGFP) (from UniProt P10636 2-758)” in this work.
